Results: patent US10143730B2, “Peptides and combination of peptides for use in immunotherapy against various cancers” (immatics biotechnologies GmbH, priority 2015, dated 2018)

target: T1, HLA-A*02 (Homo sapiens, UniProt P04439, D140Y/D185E/D98H/E176V/E277Q/G131W/G231S/I119V/I121R/I166T/I218V/L300P/N151K/N90K/P208A/P217A/Q86G/Q94H/R138H/R169H); test: MHC binding assay, UV-ligand exchange with beta2m ELISA (peptide exchange yield); conditions: binding to HLA-A*02
T1 construct: made in house
Description: Candidate peptides for T cell based therapies according to the present invention were further tested for their MHC binding capacity (affinity). The individual peptide-MHC complexes were produced by UV-ligand exchange, where a UV-sensitive peptide is cleaved upon UV-irradiation, and exchanged with the peptide of interest as analyzed. Only peptide candidates that can effectively bind and stabilize the peptide-receptive MHC molecules prevent dissociation of the MHC complexes. To determine the yield of the exchange reaction, an ELISA was performed based on the detection of the light chain (β2m) of stabilized MHC complexes. The assay was performed as generally described in Rodenko et al. (Rodenko et al., 2006).
96 well MAXISorp plates (NUNC) were coated over night with 2 ug/ml streptavidin in PBS at room temperature, washed 4× and blocked for 1h at 37° C. in 2% BSA containing blocking buffer. Refolded HLA-A*02:01/MLA-001 monomers served as standards, covering the range of 15-500 ng/ml. Peptide-MHC monomers of the UV-exchange reaction were diluted 100 fold in blocking buffer. Samples were incubated for 1h at 37° C., washed four times, incubated with 2 ug/ml HRP conjugated anti-32m for 1h at 37° C., washed again and detected with TMB solution that is stopped with […]. Absorption was measured at 450 nm. Candidate peptides that show a high exchange yield (preferably higher than 50%, most preferred higher than 75%) are generally preferred for a generation and production of antibodies or fragments thereof, and/or T cell receptors or fragments thereof, as they show sufficient avidity to the MHC molecules and prevent dissociation of the MHC complexes.

Row | Peptide exchange (MHC class I binding score, peptide exchange yield) | Substance
1 | +++ (50%-75% = +++) | 110 (FLLGVSKEV; listed as Homo sapiens) [compound 110]
2 | ++ (20%-49% = ++) | 111 (AIVDLIHDI; listed as Homo sapiens) [compound 111]
3 | ++++ (> = 75% = ++++) | 112 (SLGKFTFDV; listed as Homo sapiens) [compound 112]
4 | ++ (20%-49% = ++) | 113 (FLERGLESA; listed as Homo sapiens) [compound 113]
5 | +++ (50%-75% = +++) | 114 (QLIQTLHAV; listed as Homo sapiens) [compound 114]
6 | ++ (20%-49% = ++) | 115 (SLDPDTLPAV; listed as Homo sapiens) [compound 115]
7 | +++ (50%-75% = +++) | 117 (KMPDVELFV; listed as Homo sapiens) [compound 117]
8 | +++ (50%-75% = +++) | 118 (QLWQFLVTL; listed as Homo sapiens) [compound 118]
9 | +++ (50%-75% = +++) | 119 (FIIQGLRSVGA; listed as Homo sapiens) [compound 119]
10 | + (<20% = +) | 120 (VTPVTVSAV; listed as Homo sapiens) [compound 120]
11 | +++ (50%-75% = +++) | 121 (FTIFRTISV; listed as Homo sapiens) [compound 121]
12 | ++ (20%-49% = ++) | 122 (GVVDPVHGV; listed as Homo sapiens) [compound 122]
13 | ++ (20%-49% = ++) | 123 (VLDPALPALV; listed as Homo sapiens) [compound 123]
14 | ++ (20%-49% = ++) | 124 (KVMATIEKV; listed as Homo sapiens) [compound 124]
15 | ++++ (> = 75% = ++++) | 125 (SLADYEHFV; listed as Homo sapiens) [compound 125]
16 | ++++ (> = 75% = ++++) | 126 (QMFQYFITV; listed as Homo sapiens) [compound 126]
17 | +++ (50%-75% = +++) | 127 (KLDGNELDL; listed as Homo sapiens) [compound 127]
18 | ++ (20%-49% = ++) | 128 (TQSPATLSV; listed as Homo sapiens) [compound 128]
19 | ++++ (> = 75% = ++++) | 129 (RLQDILWFL; listed as Homo sapiens) [compound 129]

Row | Peptide exchange (MHC class I binding score, peptide exchange yield) | Substance
20 | +++ (50%-75% = +++) | 130 (SLLGGTFVGI; listed as Homo sapiens) [compound 130]
21 | +++ (50%-75% = +++) | 131 (VTSNSGILGV; listed as Homo sapiens) [compound 131]
22 | +++ (50%-75% = +++) | 132 (ILGEVLAQL; listed as Homo sapiens) [compound 132]
23 | ++++ (> = 75% = ++++) | 133 (ALLPRLHQL; listed as Homo sapiens) [compound 133]
24 | +++ (50%-75% = +++) | 134 (GLAVPTPSV; listed as Homo sapiens) [compound 134]
25 | +++ (50%-75% = +++) | 135 (HLSTIIHEA; listed as Homo sapiens) [compound 135]
26 | ++ (20%-49% = ++) | 136 (FLFGGVLMTL; listed as Homo sapiens) [compound 136]
27 | +++ (50%-75% = +++) | 142 (ILVEGISTV; listed as Homo sapiens) [compound 142]
28 | +++ (50%-75% = +++) | 143 (ALLPELREV; listed as Homo sapiens) [compound 143]
29 | +++ (50%-75% = +++) | 145 (YLWATIQRI; listed as Homo sapiens) [compound 145]
30 | ++ (20%-49% = ++) | 146 (ALHFSEDEI; listed as Homo sapiens) [compound 146]
31 | ++++ (> = 75% = ++++) | 147 (YLMDDTVEI; listed as Homo sapiens) [compound 147]
32 | +++ (50%-75% = +++) | 148 (MLAGIAITV; listed as Homo sapiens) [compound 148]
33 | +++ (50%-75% = +++) | 152 (MMVGDLLEV; listed as Homo sapiens) [compound 152]
34 | ++++ (> = 75% = ++++) | 153 (FISERVEVV; listed as Homo sapiens) [compound 153]
35 | +++ (50%-75% = +++) | 154 (RLLGTEFQV; listed as Homo sapiens) [compound 154]
36 | +++ (50%-75% = +++) | 155 (LLNPVVEFV; listed as Homo sapiens) [compound 155]
37 | +++ (50%-75% = +++) | 156 (ILGDLSHLL; listed as Homo sapiens) [compound 156]
38 | +++ (50%-75% = +++) | 157 (TLTSLLAQA; listed as Homo sapiens) [compound 157]

Row | Peptide exchange (MHC class I binding score, peptide exchange yield) | Substance
39 | +++ (50%-75% = +++) | 234 (LLSPHNPAL; listed as Homo sapiens) [compound 234]
40 | +++ (50%-75% = +++) | 236 (STIAILNSV; listed as Homo sapiens) [compound 236]
41 | +++ (50%-75% = +++) | 237 (ALAPHLDDA; listed as Homo sapiens) [compound 237]
42 | ++ (20%-49% = ++) | 238 (GLYERPTAA; listed as Homo sapiens) [compound 238]
43 | ++ (20%-49% = ++) | 239 (KMNESTRSV; listed as Homo sapiens) [compound 239]
44 | +++ (50%-75% = +++) | 240 (YMGEEKLIASV; listed as Homo sapiens) [compound 240]
45 | ++ (20%-49% = ++) | 241 (KTIQQLETV; listed as Homo sapiens) [compound 241]
46 | ++ (20%-49% = ++) | 242 (WLYGEDHQI; listed as Homo sapiens) [compound 242]
47 | +++ (50%-75% = +++) | 243 (FMADDIFSV; listed as Homo sapiens) [compound 243]
48 | ++ (20%-49% = ++) | 244 (YLLEKNRVV; listed as Homo sapiens) [compound 244]
49 | ++++ (> = 75% = ++++) | 245 (SLLDLPLSL; listed as Homo sapiens) [compound 245]
50 | +++ (50%-75% = +++) | 246 (TVSDVLNSV; listed as Homo sapiens) [compound 246]
51 | +++ (50%-75% = +++) | 250 (SLAPATPEV; listed as Homo sapiens) [compound 250]
52 | +++ (50%-75% = +++) | 252 (RLMEICESL; listed as Homo sapiens) [compound 252]
53 | +++ (50%-75% = +++) | 253 (ALAELIDNSL; listed as Homo sapiens) [compound 253]
54 | ++ (20%-49% = ++) | 254 (KLQGKLPEL; listed as Homo sapiens) [compound 254]
55 | +++ (50%-75% = +++) | 255 (SLLHFTENL; listed as Homo sapiens) [compound 255]
56 | ++ (20%-49% = ++) | 256 (SLGEEQFSV; listed as Homo sapiens) [compound 256]
